In this data set the test system is Escherichia coli TOP10. The data set is described as follows: shrunken log2 fold change of peptide-encoding DNA abundance (4.5 h post-induction vs induction); higher = less antimicrobial activity (less host growth inhibition). The note with it: time post-induction: 4.5 h; library: site-saturation at positions 5, 18, 19, 20.
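Note: peptides expressed intracellularly from a pBAD plasmid library in pooled LB shake-flask culture, induced with 0.3% L-arabinose, DNA abundance read by NGS, three biological replicates, DESeq2 with apeglm shrinkage.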

Turning to RRIRVRPPRLPRPRPRPYLGPRP, the “shrunken log2 fold change” value was -0.177. For RRIRGRPPRLPRPRPRPNWVPRP the value was 0.325. Then RRIRFRPPRLPRPRPRPRPPPRP, with 1.36. For RRIRLRPPRLPRPRPRPWLIPRP the value was -0.00228; for RRIRIRPPRLPRPRPRPYRDPRP, -0.0075.

Consider RRIRQRPPRLPRPRPRPGYWPRP, for which the “shrunken log2 fold change” value was -0.116. Then RRIRMRPPRLPRPRPRPYWCPRP, with -0.0737. Take RRIRLRPPRLPRPRPRPLRKPRP: the “shrunken log2 fold change” value came to 0.183. For RRIRMRPPRLPRPRPRPYSAPRP the value was 0.0186; for RRIRDRPPRLPRPRPRPPKVPRP, 0.387; for RRIRFRPPRLPRPRPRPVNRPRP, 0.188. Then RRIRLRPPRLPRPRPRPATRPRP, with 0.145.

On to RRIRQRPPRLPRPRPRPAKDPRP, for which the “shrunken log2 fold change” value amounted to 0.0171. Then RRIRHRPPRLPRPRPRPCNIPRP, with -0.236; and RRIRGRPPRLPRPRPRPILPPRP, with 0.0676.

As for RRIRSRPPRLPRPRPRPWMPPRP, the “shrunken log2 fold change” value was -0.433. As for RRIRFRPPRLPRPRPRPCYDPRP, the “shrunken log2 fold change” value is -0.0301. Then RRIRVRPPRLPRPRPRPHNEPRP, with -0.811. In the case of RRIRFRPPRLPRPRPRPDEDPRP, the “shrunken log2 fold change” value was found to be 0.181.

RRIRNRPPRLPRPRPRPMDAPRP: the “shrunken log2 fold change” value came to 0.101. For RRIRWRPPRLPRPRPRPAFNPRP the value was -0.116; for RRIRSRPPRLPRPRPRPISCPRP, -0.0707. For RRIRYRPPRLPRPRPRPWKAPRP, the “shrunken log2 fold change” value is -0.0135. As for RRIRQRPPRLPRPRPRPIRVPRP, the “shrunken log2 fold change” value is -0.00674.

Consider RRIRDRPPRLPRPRPRPPIDPRP, for which the “shrunken log2 fold change” value is 0.0165. Then RRIRCRPPRLPRPRPRPWIAPRP, with -0.256; and RRIRVRPPRLPRPRPRPYNDPRP, with -0.609. For RRIRMRPPRLPRPRPRPAAYPRP the value was 0.206; for RRIRVRPPRLPRPRPRPCARPRP, -0.0405. For RRIRVRPPRLPRPRPRPCEMPRP the value was 1.45. RRIRARPPRLPRPRPRPKLYPRP: the “shrunken log2 fold change” value stood at 0.0318. For RRIRERPPRLPRPRPRPKLNPRP the value was -0.254. For RRIRVRPPRLPRPRPRPKLHPRP the value was -0.237; for RRIRNRPPRLPRPRPRPHDNPRP, -0.511. For RRIRHRPPRLPRPRPRPCHPPRP the value was -0.01; for RRIRFRPPRLPRPRPRPFMRPRP, 0.559; for RRIRKRPPRLPRPRPRPKHNPRP, 0.0641. Regarding RRIRDRPPRLPRPRPRPGICPRP, the “shrunken log2 fold change” value is -0.0538. Then RRIRYRPPRLPRPRPRPLDNPRP, with -0.0671; and RRIRFRPPRLPRPRPRPIPAPRP, with -0.15; and RRIRHRPPRLPRPRPRPIQWPRP, with -0.01.

RRIRWRPPRLPRPRPRPVTQPRP: the “shrunken log2 fold change” value was -0.0775. For RRIRPRPPRLPRPRPRPMNNPRP, the “shrunken log2 fold change” value was -0.916. For RRIRNRPPRLPRPRPRPGMWPRP the value was 0.397. For RRIRIRPPRLPRPRPRPVSSPRP the value was -0.213. Then RRIRWRPPRLPRPRPRPGFTPRP, with 0.132; and RRIRFRPPRLPRPRPRPKGRPRP, with -0.0884; and RRIRMRPPRLPRPRPRPPFYPRP, with -0.182. Turning to RRIRCRPPRLPRPRPRPMPSPRP, the “shrunken log2 fold change” value stood at 2.8. Consider RRIRERPPRLPRPRPRPLDTPRP, for which the “shrunken log2 fold change” value came to 0.213. Take RRIRARPPRLPRPRPRPHRMPRP: the “shrunken log2 fold change” value is -0.0562. Then RRIRLRPPRLPRPRPRPWWIPRP, with -0.107; and RRIRWRPPRLPRPRPRPIQMPRP, with -0.0543.

For the sequence RRIRWRPPRLPRPRPRPFGLPRP, the “shrunken log2 fold change” value amounted to 0.0452. Then RRIRPRPPRLPRPRPRPRNHPRP, with -0.196; and RRIRLRPPRLPRPRPRPFNLPRP, with -0.596. For RRIRQRPPRLPRPRPRPQGDPRP the value was -0.00865; for RRIRLRPPRLPRPRPRPHLMPRP, -0.218; for RRIRFRPPRLPRPRPRPNWLPRP, -0.0999. For RRIRFRPPRLPRPRPRPRLCPRP the value was 0.276. As for RRIRDRPPRLPRPRPRPQLVPRP, the “shrunken log2 fold change” value was 0.0777. For RRIRLRPPRLPRPRPRPFYCPRP the value was -0.472. For RRIRNRPPRLPRPRPRPDEAPRP the value was 0.27; for RRIRRRPPRLPRPRPRPPSTPRP, 0.585; for RRIRIRPPRLPRPRPRPFDTPRP, 0.0514. Then RRIRPRPPRLPRPRPRPLPIPRP, with -0.301; and RRIRSRPPRLPRPRPRPANQPRP, with -0.116; and RRIRIRPPRLPRPRPRPLHIPRP, with -1.21.

Turning to RRIRMRPPRLPRPRPRPMLYPRP, the “shrunken log2 fold change” value was 0.0885.

Consider RRIRSRPPRLPRPRPRPNFMPRP, for which the “shrunken log2 fold change” value is -0.43. For RRIRTRPPRLPRPRPRPLNFPRP the value was -0.446; for RRIRKRPPRLPRPRPRPQLWPRP, 0.539. With RRIRDRPPRLPRPRPRPIDEPRP, the “shrunken log2 fold change” value came to 0.0126. For RRIRFRPPRLPRPRPRPRIKPRP the value was -0.168; for RRIRFRPPRLPRPRPRPKRFPRP, 0.0111; for RRIRLRPPRLPRPRPRPIILPRP, -1.48. With RRIRFRPPRLPRPRPRPIDPPRP, the “shrunken log2 fold change” value is -0.526. Then RRIRARPPRLPRPRPRPMLTPRP, with 0.466. For RRIRYRPPRLPRPRPRPCIPPRP the value was -0.11; for RRIRYRPPRLPRPRPRPVDDPRP, -0.443. For RRIRERPPRLPRPRPRPWWGPRP the value was -0.081. For RRIRCRPPRLPRPRPRPTCEPRP, the “shrunken log2 fold change” value was determined as 0.142.

For RRIRVRPPRLPRPRPRPILWPRP, the “shrunken log2 fold change” value is 0.0127. Then RRIRLRPPRLPRPRPRPVNGPRP, with -0.0366; and RRIRPRPPRLPRPRPRPELPPRP, with 0.175.

For the sequence RRIRLRPPRLPRPRPRPGGAPRP, the “shrunken log2 fold change” value is 0.384.

As to RRIRHRPPRLPRPRPRPFTCPRP, the “shrunken log2 fold change” value is -0.231. For RRIRDRPPRLPRPRPRPKNWPRP the value was 2.51.

On to RRIRKRPPRLPRPRPRPKEGPRP, for which the “shrunken log2 fold change” value was 0.0503. Then RRIRMRPPRLPRPRPRPIDFPRP, with -0.00165; and RRIRGRPPRLPRPRPRPHGCPRP, with 0.585.
